Target: VirB4-like TraB ATPase of the pKM101-encoded type IV secretion system (plasmid pKM101 (carried in E. coli))
Assay: cryo-EM structure

stoichiometry N: 12
Substance: VirB4-like TraB ATPase of the pKM101-encoded type IV secretion system (enzyme)
